Results from patent publication US20240376185A1 (SMIVET B V, published 2024).
Where two headings read alike, the source gives them in different places.

T1: recombinant tetanus toxin fragment C (rTTC) (Clostridium tetani, UniProt P04958 865-1315)
T1 sequence: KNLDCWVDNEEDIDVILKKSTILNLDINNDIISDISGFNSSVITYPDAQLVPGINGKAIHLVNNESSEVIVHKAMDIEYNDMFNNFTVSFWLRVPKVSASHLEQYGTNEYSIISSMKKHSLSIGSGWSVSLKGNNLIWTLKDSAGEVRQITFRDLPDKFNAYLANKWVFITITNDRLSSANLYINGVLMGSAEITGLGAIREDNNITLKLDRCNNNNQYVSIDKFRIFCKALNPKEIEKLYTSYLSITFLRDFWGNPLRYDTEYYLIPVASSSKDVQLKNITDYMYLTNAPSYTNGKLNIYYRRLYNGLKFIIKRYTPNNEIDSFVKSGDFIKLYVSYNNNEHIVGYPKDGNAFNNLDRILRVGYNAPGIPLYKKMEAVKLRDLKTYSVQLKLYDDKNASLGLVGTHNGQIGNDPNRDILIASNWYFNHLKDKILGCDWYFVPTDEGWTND

B1: SVT15-3FW4M-GS3-SVT06-GS2-SVG13M5-H6 (bispecific antibody)
chain: QVQLQESGGGLVQTGGSLRLSCRASGRAFANYHFGWFRQAPGKDREFVASISWKGGSTYYANFALGRFTSSVDRAESSVYLQMSGLTPEDTATYYCAAHDGGDWNYHTGMDYWGQGTQVTVSSGGGGSGGGGSGGGGSQVQLQESGGGSVQAGGSLRLSCTASELSYDDYTIAWFRRAAGEGRVEDGEGVASITKSYDRAYDNKINYGHSVKGRFTISRDNAKNTVYLQMTDLLPSDTAVYYCALDITPPGGVGASLTEGFLFDYWGQGTQVTVSSGGGGSGGGSEVQLVESGGGLVQPGGSLRLSCEASGFTFDDYGMSWVRQAPGKGLEWVSSLTPNGGSTYYADSVKGRFTISRDNAKNTLYLQMNSLKPEDTALYYCAKNSYYGAMDYRGQGTQVTVSSHHHHHH
B2: SVT06-GS3-SVT15-3FW4M-GS2-SVG06M4-H6 (bispecific antibody)
chain: QVQLQESGGGSVQAGGSLRLSCTASELSYDDYTIAWFRRAAGEGRVEDGEGVASITKSYDRAYDNKINYGHSVKGRFTISRDNAKNTVYLQMTDLLPSDTAVYYCALDITPPGGVGASLTEGFLFDYWGQGTQVTVSSGGGGSGGGGSGGGGSQVQLQESGGGLVQTGGSLRLSCRASGRAFANYHFGWFRQAPGKDREFVASISWKGGSTYYANFALGRFTSSVDRAESSVYLQMSGLTPEDTATYYCAAHDGGDWNYHTGMDYWGQGTQVTVSSGGGGSGGGSEVQLVESGGALVQPGGSLRLSCAASGFPFSAYDMTWVRQAPGQGLEWVSTIHKSGGITTYADSVKGRFTISRDNAKNTLYLQMNNLESEDTAVYYCAKALRAHNSDYVGRNALGSWGQGTQVTVSSHHHHHH
B3: SVT03L (VHH)
VHH: QVQLQQSGGGSVQTGDSLTLSCTASGGSLNSYFVGWFRQSGGKEREFVSVIARTGRSTSYADSVKGRFTISRDNAANTVFLTMNNLRPDDTAIYYCAAVGRPGVLHLTQSYDYWGQGTQVTVSS
B4: SVT03L (VHH)
VHH: B3 VHH
B5: SVT02L (VHH)
VHH: QVQLQQSGGGSVQAGGSLRLSCVGPQRTFSTYGMGWFRQAPGKEREFVAGINYKGDTTYYADSVKGRFTISRDNAKNTLYLQMDSLKPEDRAVYQCARKGGLGGDYRDAGQYRYWGQGTQVTVSS

Experiments:
horse serum albumin = biological target: T2, horse serum albumin (horse, UniProt P35747 25-607); assay: BLI, biotinylated albumin on SA sensors
T2 construct: mature; also called horse Alb; Equine albumin

human serum albumin = biological target: T3, human serum albumin (human, UniProt P02768 25-609); assay: BLI, biotinylated albumin on SA sensors
T3 construct: mature; also called human Alb

dog serum albumin = biological target: T4, dog serum albumin (dog, UniProt P49822 25-608); assay: BLI, biotinylated SDA on SA sensors
T4 construct: mature; also called dog Alb; Canine albumin

[1] = biological target: T5, tetanus neurotoxin (TeNT), authentic tetanus holotoxin (Clostridium tetani, UniProt P04958 2-1315); assay: BLI (Octet Red96); avidity (bivalent for TeNT); format for this SDA not told
Target sequence in this assay (P04958 2-457 limits assumed, chain 1 of 2): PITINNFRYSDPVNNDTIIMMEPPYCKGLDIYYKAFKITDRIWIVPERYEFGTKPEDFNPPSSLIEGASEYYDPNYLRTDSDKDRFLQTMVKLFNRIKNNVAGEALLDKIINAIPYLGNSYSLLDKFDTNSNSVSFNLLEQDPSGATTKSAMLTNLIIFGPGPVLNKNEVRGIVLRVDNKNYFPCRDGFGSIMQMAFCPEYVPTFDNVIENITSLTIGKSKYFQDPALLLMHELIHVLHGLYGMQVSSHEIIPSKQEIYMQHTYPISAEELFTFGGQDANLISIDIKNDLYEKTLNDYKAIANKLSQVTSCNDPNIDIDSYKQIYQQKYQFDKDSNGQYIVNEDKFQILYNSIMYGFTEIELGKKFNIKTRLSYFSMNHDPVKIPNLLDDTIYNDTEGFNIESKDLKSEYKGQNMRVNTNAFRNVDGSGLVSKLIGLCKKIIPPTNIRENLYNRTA
Target sequence in this assay (P04958 458-1315 limits assumed, chain 2 of 2): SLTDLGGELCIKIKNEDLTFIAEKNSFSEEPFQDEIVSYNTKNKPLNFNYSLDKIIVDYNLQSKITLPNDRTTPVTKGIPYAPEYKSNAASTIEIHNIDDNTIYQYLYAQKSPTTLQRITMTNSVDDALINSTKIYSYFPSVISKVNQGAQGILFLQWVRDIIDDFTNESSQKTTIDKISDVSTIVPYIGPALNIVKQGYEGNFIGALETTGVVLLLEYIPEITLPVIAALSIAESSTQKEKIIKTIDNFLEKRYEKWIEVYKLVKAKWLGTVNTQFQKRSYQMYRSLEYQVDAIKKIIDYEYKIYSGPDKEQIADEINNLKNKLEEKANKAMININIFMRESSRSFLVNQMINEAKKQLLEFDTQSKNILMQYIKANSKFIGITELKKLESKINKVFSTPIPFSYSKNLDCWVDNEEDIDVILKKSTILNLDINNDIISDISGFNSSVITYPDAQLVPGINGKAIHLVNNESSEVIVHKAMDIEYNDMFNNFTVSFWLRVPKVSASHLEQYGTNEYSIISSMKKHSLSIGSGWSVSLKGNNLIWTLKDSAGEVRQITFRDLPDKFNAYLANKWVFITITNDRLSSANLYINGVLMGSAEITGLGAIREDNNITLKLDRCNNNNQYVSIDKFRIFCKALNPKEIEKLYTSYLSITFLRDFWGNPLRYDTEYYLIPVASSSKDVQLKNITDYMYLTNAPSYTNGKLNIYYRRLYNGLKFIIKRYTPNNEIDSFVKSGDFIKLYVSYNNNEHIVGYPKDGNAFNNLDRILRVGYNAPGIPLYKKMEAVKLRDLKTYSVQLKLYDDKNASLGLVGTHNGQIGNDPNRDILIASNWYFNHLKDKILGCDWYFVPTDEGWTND

[2] = biological target: T5, tetanus neurotoxin (TeNT), authentic …
[3] = biological target: T5, tetanus neurotoxin (TeNT), authentic …; assay: BLI (Octet Red96); estimate of the footnote with kdis set to 1.0E-07; avidity
Target sequence in this assay (P04958 2-457 limits assumed, chain 1 of 2): as the sequence (P04958 2-457 limits assumed, chain 1 of 2) above
Target sequence in this assay (P04958 458-1315 limits assumed, chain 2 of 2): as the sequence (P04958 458-1315 limits assumed, chain 2 of 2) above

[4] = biological target: T5, tetanus neurotoxin (TeNT), authentic …; assay: BLI (Octet Red96); estimate of the footnote with kdis set to 1.0E-07
Target sequence in this assay (P04958 2-457 limits assumed): as the sequence (P04958 2-457 limits assumed, chain 1 of 2) above

[5] = biological target: T5, tetanus neurotoxin (TeNT), authentic …; assay: BLI (Octet Red96): biotinylated TeNT on SA sensor, SDA as analyte
Target sequence in this assay (P04958 2-457 limits assumed, chain 1 of 2): as above
Target sequence in this assay (P04958 458-1315 limits assumed, chain 2 of 2): as the sequence (P04958 458-1315 limits assumed, chain 2 of 2) above

[6] = biological target: T5, tetanus neurotoxin (TeNT), authentic …; assay: cell-based or functional assay
Target sequence in this assay (P04958 2-457 limits assumed): as the sequence (P04958 2-457 limits assumed, chain 1 of 2) above

[7] = biological target: T6, tetanus neurotoxin (TeNT), authentic tetanus holotoxin (Clostridium tetani, UniProt P04958 2-1315); assay: competition ELISA on TeNT, binder biotinylated; competitor mAb 6E7
Target sequence in this assay (P04958 2-457 limits assumed, chain 1 of 2): as above
Target sequence in this assay (P04958 458-1315 limits assumed, chain 2 of 2): as the sequence (P04958 458-1315 limits assumed, chain 2 of 2) above

[8] = biological target: T6, tetanus neurotoxin (TeNT), authentic …; assay: competition ELISA on TeNT, binder biotinylated; competitor SVT06L
Target sequence in this assay (P04958 2-457 limits assumed, chain 1 of 2): as the sequence (P04958 2-457 limits assumed, chain 1 of 2) above
Target sequence in this assay (P04958 458-1315 limits assumed, chain 2 of 2): as the sequence (P04958 458-1315 limits assumed, chain 2 of 2) above

[9] = biological target: T6, tetanus neurotoxin (TeNT), authentic …; assay: competition ELISA on TeNT, binder biotinylated; competitor SVT15L-3FW4M
Target sequence in this assay (P04958 2-457 limits assumed, chain 1 of 2): as the sequence (P04958 2-457 limits assumed, chain 1 of 2) above
Target sequence in this assay (P04958 458-1315 limits assumed, chain 2 of 2): as the sequence (P04958 458-1315 limits assumed, chain 2 of 2) above

[10] = biological target: T6, tetanus neurotoxin (TeNT), authentic …; assay: competition ELISA on TeNT, binder biotinylated; competitor SVT13L
[11] = biological target: T6, tetanus neurotoxin (TeNT), authentic …; assay: competition ELISA on TeNT, binder biotinylated; competitor SVT22L
[12] = biological target: T6, tetanus neurotoxin (TeNT), authentic …; assay: competition ELISA on TeNT, binder biotinylated; competitor SVT03L
[13] = biological target: T6, tetanus neurotoxin (TeNT), authentic …; assay: competition ELISA on TeNT, binder biotinylated; competitor mAb 11n185
[14] = biological target: T6, tetanus neurotoxin (TeNT), authentic …; assay: competition ELISA on TeNT, binder biotinylated; competitor SVT15L
[15] = biological target: T1, recombinant tetanus toxin fragment C …; assay: ELISA, directly coated rTTC, unlabelled binder
[16] = biological target: T6, tetanus neurotoxin (TeNT), authentic …; assay: competition ELISA on TeNT, binder biotinylated; competitor mAb 14F5
[17] = biological target: T6, tetanus neurotoxin (TeNT), authentic …; assay: GT1b-TeNT inhibition ELISA, EC at A450 0.59
[18] = biological target: T6, tetanus neurotoxin (TeNT), authentic …; assay: competition ELISA on TeNT, binder biotinylated; competitor mAb 6F57
[19] = biological target: T6, tetanus neurotoxin (TeNT), authentic …; assay: ELISA, directly coated TeNT, biotinylated binder
[20] = biological target: T6, tetanus neurotoxin (TeNT), authentic …; assay: ELISA, TeNT captured with cAb-TT2, biotinylated binder
[21] = biological target: T6, tetanus neurotoxin (TeNT), authentic …; assay: ELISA, TeNT captured with cAb-TT2, unlabelled binder
[22] = biological target: T1, recombinant tetanus toxin fragment C …; assay: ELISA, rTTC captured with coated mAb 6E7
[23] = biological target: T6, tetanus neurotoxin (TeNT), authentic …; assay: ELISA, directly coated TeNT, unlabelled binder
[24] = biological target: T6, tetanus neurotoxin (TeNT), authentic …; assay: competition ELISA on TeNT, binder biotinylated; competitor SVT34L
[25] = biological target: T6, tetanus neurotoxin (TeNT), authentic …; assay: ELISA, TeNT captured with coated mAb 6E7
[26] = biological target: T1, recombinant tetanus toxin fragment C …; assay: ELISA, directly coated rTTC
[27] = biological target: T6, tetanus neurotoxin (TeNT), authentic …; assay: competition ELISA on TeNT, binder biotinylated; competitor SVT16L
[28] = biological target: T6, tetanus neurotoxin (TeNT), authentic …; assay: competition ELISA on TeNT, binder biotinylated; competitor SVT08L
[29] = biological target: T6, tetanus neurotoxin (TeNT), authentic …; assay: ELISA, directly coated TeNT
[30] = biological target: T6, tetanus neurotoxin (TeNT), authentic …; assay: competition ELISA on TeNT, binder biotinylated; competitor SVT02L
[31] = biological target: T6, tetanus neurotoxin (TeNT), authentic …; assay: GT1b-TeNT inhibition ELISA, unlabelled binder

T4 sequence (P49822 25-608): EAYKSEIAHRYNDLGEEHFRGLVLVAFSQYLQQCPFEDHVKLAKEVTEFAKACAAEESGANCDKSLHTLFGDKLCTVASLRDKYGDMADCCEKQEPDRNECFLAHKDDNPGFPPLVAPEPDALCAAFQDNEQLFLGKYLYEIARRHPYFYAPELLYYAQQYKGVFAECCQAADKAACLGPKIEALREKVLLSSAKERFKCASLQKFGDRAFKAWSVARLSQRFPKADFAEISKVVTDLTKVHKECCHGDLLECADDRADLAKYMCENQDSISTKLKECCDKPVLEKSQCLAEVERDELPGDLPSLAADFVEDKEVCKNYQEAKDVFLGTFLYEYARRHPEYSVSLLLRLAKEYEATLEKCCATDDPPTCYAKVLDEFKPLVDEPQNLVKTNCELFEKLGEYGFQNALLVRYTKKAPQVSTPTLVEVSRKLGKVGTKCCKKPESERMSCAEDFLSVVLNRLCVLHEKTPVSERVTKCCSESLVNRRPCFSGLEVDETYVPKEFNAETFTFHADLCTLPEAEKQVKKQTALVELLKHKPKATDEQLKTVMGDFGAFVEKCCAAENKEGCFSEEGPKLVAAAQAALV
T2 sequence (P35747 25-607): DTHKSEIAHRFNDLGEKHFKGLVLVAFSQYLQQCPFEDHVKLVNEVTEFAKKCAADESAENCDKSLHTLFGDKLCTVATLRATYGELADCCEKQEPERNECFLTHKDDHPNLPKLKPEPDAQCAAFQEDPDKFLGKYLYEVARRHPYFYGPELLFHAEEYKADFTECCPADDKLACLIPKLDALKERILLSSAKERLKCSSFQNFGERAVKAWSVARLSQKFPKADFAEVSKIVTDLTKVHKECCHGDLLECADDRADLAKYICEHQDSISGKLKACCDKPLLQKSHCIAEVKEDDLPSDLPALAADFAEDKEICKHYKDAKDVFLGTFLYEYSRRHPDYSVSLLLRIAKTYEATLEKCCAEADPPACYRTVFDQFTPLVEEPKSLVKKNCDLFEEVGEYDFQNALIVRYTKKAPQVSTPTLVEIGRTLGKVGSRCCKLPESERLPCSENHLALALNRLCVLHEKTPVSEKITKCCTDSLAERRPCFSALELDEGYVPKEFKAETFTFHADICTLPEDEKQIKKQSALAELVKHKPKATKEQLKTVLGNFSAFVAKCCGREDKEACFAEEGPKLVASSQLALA

Binder | Kd [2] [pM] | % inhibition of binding [7] [%] | % inhibition of binding [8] [%] | % inhibition of binding [9] [%] | % inhibition of binding [10] [%] | % inhibition of binding [11] [%] | % inhibition of binding [12] [%] | % inhibition of binding [13] [%] | % inhibition of binding [14] [%] | maximal absorbance at 450 nm [15] | % inhibition of binding [16] [%] | concentration giving A450 of 0.59 [17] [µg/mL] | % inhibition of binding [18] [%] | EC resulting in A450 0.4 [19] [ng/mL] | maximal absorbance at 450 nm [19] | EC resulting in A450 0.2 [20] [ng/mL] | maximal absorbance at 450 nm [20] | EC resulting in A450 0.15 [21] [ng/mL] | maximal absorbance at 450 nm [21] | absorbance at 450 nm [22] | further results
B1 | – | – | – | – | – | – | – | – | – | – | – | – | – | – | – | – | – | – | – | – | binding result (horse serum albumin): no binding (tested: 100 nM); binding result (human serum albumin): no binding (tested: 100 nM); binding result (dog serum albumin): no binding (tested: 500 nM)
B2 | < 1 | – | – | – | – | – | – | – | – | – | – | – | – | – | – | – | – | – | – | – | koff [1]: < 1e-07 s⁻¹; kon [1]: 69100 M⁻¹ s⁻¹; Kd [3]: ~1.45 pM
B3 | < 1 | – | – | – | – | – | – | – | – | – | – | – | – | – | – | – | – | – | – | – | Kd [4]: ~0.0177 pM; koff [5]: < 1e-07 s⁻¹; kon [5]: 5.65e+06 M⁻¹ s⁻¹; Endpoint dilution factor [6]: < 1; SDA concentration providing full protection [6]: > 1000 nM
B4 | – | -12 | 10 | 10 | 23 | 10 | 97 | -26 | 12 | 0.053 | -8 | > 1 | 17 | > 1000 | 0.233 | 2.8 | 0.493 | 1.9 | 0.304 | 0.061 | EC resulting in A450 0.2 [23]: > 1000 ng/mL; maximal absorbance at 450 nm [23]: 0.104; % inhibition of binding [24]: -4%; absorbance at 450 nm [25]: 1.32; binding result [26]: no binding (tested: A450 above 0.2 counts as binding); % inhibition of binding [27]: 18%; % inhibition of binding [28]: 10%; absorbance at 450 nm [29]: 0.331; % inhibition of binding [30]: 10%; minimal absorbance at 450 nm [31]: 0.903
B5 | – | 8 | 2 | 12 | 21 | 3 | 9 | 19 | 6 | 0.057 | 97 | > 1 | 19 | > 1000 | 0.191 | 11 | 0.53 | 36 | 0.196 | 0.062 | EC resulting in A450 0.2 [23]: > 1000 ng/mL; maximal absorbance at 450 nm [23]: 0.077; % inhibition of binding [24]: -16%; absorbance at 450 nm [25]: 1.19; binding result [26]: no binding (tested: A450 above 0.2 counts as binding); % inhibition of binding [27]: 26%; % inhibition of binding [28]: 16%; absorbance at 450 nm [29]: 0.062; % inhibition of binding [30]: 96%; minimal absorbance at 450 nm [31]: 0.576
